{"source": "paper PMC4333418", "about": "“Transcriptional regulator-mediated activation of adaptation genes triggers CRISPR de novo spacer acquisition”", "molecules": {"B1": {"name": "csa1 25-bp minimal region (dsDNA)", "DNA 1": "ATCCTTACTAAAGTCGGGAAGAAATT", "DNA 2": "AATTTCTTCCCGACTTTAGTAAGGAT"}, "B2": {"name": "cas1 P2 (-35 to -10) (dsDNA)", "DNA 1": "TTAAGACCTTAATAATATCGGAATAT", "DNA 2": "ATATTCCGATATTATTAAGGTCTTAA"}, "B3": {"name": "csa1 promoter P3 (-42 to -4) (dsDNA)", "DNA 1": "TTACAAGGATCATTATTGTGTATTTTAGATTCTTTTTGC", "DNA 2": "GCAAAAAGAATCTAAAATACACAATAATGATCCTTGTAA"}}, "key": {"[1]": {"biological_target": "T1, Csa3a (Sulfolobus islandicus REY15A) (UniProt F0NH46)", "T1 sequence": "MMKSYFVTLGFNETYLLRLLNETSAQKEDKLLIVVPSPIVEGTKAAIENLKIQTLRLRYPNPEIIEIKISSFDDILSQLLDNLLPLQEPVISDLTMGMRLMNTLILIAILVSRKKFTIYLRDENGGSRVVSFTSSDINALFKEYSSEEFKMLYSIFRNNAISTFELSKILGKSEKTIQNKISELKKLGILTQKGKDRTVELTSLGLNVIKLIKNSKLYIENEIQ", "assay": "EMSA", "settings": "EMSA: 20 mM Tris-HCl pH 8.0, 50 mM KCl, 5% glycerol, 1 mM EDTA, 1 mM DTT, 5 ng/ul poly(dI-dC), 10 pmol probe in 20 ul, 40 C 20 min; footprinting: 10 mM …"}, "Csa3a [2]": {"biological_target": "T2, Csa3a (Sulfolobus islandicus REY15A, UniProt F0NH46 1-224)", "T2 sequence": "T1 sequence", "assay": "EMSA; Csa3a 0.4-1.6 pmol/ul; EMSA: 20 mM Tris-HCl pH 8.0, 50 mM KCl, 5% glycerol, 1 mM EDTA, 1 mM DTT, 5 ng/ul poly(dI-dC), 10 pmol probe in 20 ul, 40 C 20 min; footprinting: 10 mM Tris-HCl pH 7.4, 10 mM MgCl2, 1 mM CaCl2, 0.4 mM DTT, 100 mM KCl, 5% glycerol, 40 C 20 min", "settings": "protein: recombinant; chain copies: 2; label: 5' biotin"}, "Csa3a [3]": {"biological_target": "T2, Csa3a", "assay": "EMSA; Csa3a 2.4-6 pmol/ul; EMSA: 20 mM Tris-HCl pH 8.0, 50 mM KCl, 5% glycerol, 1 mM EDTA, 1 mM DTT, 5 ng/ul poly(dI-dC), 10 pmol probe in 20 ul, 40 C 20 min; footprinting: 10 mM Tris-HCl pH 7.4, 10 mM MgCl2, 1 mM CaCl2, 0.4 mM DTT, 100 mM KCl, 5% glycerol, 40 C 20 min", "settings": "protein: recombinant; chain copies: 2; label: 5' biotin (one strand); blunt"}, "Csa3a [4]": {"biological_target": "T2, Csa3a", "assay": "EMSA; Csa3a 1.6 pmol/ul; EMSA: 20 mM Tris-HCl pH 8.0, 50 mM KCl, 5% glycerol, 1 mM EDTA, 1 mM DTT, 5 ng/ul poly(dI-dC), 10 pmol probe in 20 ul, 40 C 20 min; footprinting: 10 mM Tris-HCl pH 7.4, 10 mM MgCl2, 1 mM CaCl2, 0.4 mM DTT, 100 mM KCl, 5% glycerol, 40 C 20 min", "settings": "protein: recombinant; chain copies: 2; label: 5' biotin (one strand); blunt"}}}
{"molecule": "GCAAAAAGAATCTAAAATACACAATAATGATCCTTGTAAATTTCTTCCCGACTTTAGTAAGGATAATCTTAATAAACGACGATTTTCCTCTTGATGAAGAATAATGGAAAATATAGGGAAAGTGTTCTCCCGTATACGATCCTTGTTTTCCTTTTTCCTTGTTTCGTTTTGGGTTAGGTTGTTATCCTAAATTCATTATCTT (double strand) [csa1 promoter P1 (-205 to -4)]", "values": [{"measurement": "binding", "setting": "[1]", "value": "binds"}]}
{"molecule": "TATATTTTCCATTATTCTTCATCAAGAGGAAAATCGTCGTTTATTAAGATTATCCTTACTAAAGTCGGGAAGAAATTTACAAGGATCATTATTGTGTATTTTAGATTCTTTTTGC (double strand) [csa1 promoter P2 (-118 to -4)]", "values": [{"measurement": "binding", "setting": "[1]", "value": "binds"}]}
{"molecule": "B1", "values": [{"measurement": "binding result", "setting": "Csa3a [2]", "value": "binds"}]}
{"molecule": "B2", "values": [{"measurement": "binding result", "setting": "Csa3a [3]", "value": "no binding"}]}
{"molecule": "B3", "values": [{"measurement": "binding result", "setting": "Csa3a [4]", "value": "no binding"}]}
